Biological target: murine RAGE-Fc (mouse) (UniProt Q62151)
Assay: method not given

murine RAGE-Fc (mouse), sequence (Q62151 other isoform, or with tags, fused parts or gaps, form in doubt): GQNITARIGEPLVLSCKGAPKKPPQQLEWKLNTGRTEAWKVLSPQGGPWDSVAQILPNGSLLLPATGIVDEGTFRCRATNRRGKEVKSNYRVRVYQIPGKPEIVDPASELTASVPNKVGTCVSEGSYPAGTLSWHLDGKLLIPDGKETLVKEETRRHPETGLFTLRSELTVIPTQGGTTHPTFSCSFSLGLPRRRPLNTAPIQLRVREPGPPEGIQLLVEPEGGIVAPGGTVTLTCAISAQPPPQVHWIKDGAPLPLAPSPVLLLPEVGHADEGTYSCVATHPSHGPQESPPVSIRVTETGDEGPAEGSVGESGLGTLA

- Kd: 0.3 nM
B1: XT-M4 (antibody, rat IgG2b, V domains shown)
VH: EVQLVESGGGLVQPGRSLKLSCVVSGFTFNNYWMTWIRQTPGKGLEWVASINNSGDNTYYPDSVKDRFTISRDNAKSTLYLQMNSLRSEDTATYYCTRGGDITTGFDYWGQGVMVTVSS
VL: DIQMTQSPSSMSVSLGDTITITCRASQDVGIYVNWFQQKPGKSPRRMIYRATNLADGVPSRFSGSRSGSIYSLTISSLESEDVADYHCLEFDEHPLTFGSGTKVEIK

— patent US20070286858A1
